Laboratory results: US5945288

Test system: PmeI restriction endonuclease (Pseudomonas mendocina)
Experiment: cleavage_in_vitro
Conditions: column fractions assayed on lambda DNA

bacteriophage lambda DNA gave an activity (units (total purified)) of 116000.
